Data published in publication PMC9321536.

B1: SUCNR1/GPR91 (succinate receptor): N8A (protein)
parent chain: MLGIMAWNATCKNWLAAEAALEKYYLSIFYGIEFVVGVLGNTIVVYGYIFSLKNWNSSNIYLFNLSVSDLAFLCTLPMLIRSYANGNWIYGDVLCISNRYVLHANLYTSILFLTFISIDRYLIIKYPFREHLLQKKEFAILISLAIWVLVTLELLPILPLINPVITDNGTTCNDFASSGDPNYNLIYSMCLTLLGFLIPLFVMCFFYYKIALFLKQRNRQVATALPLEKPLNLVIMAVVIFSVLFTPYHVMRNVRIASRLGSWKQYQCTQVVINSFYIVTRPLAFLNSVINPVFYFLLGDHFRDMLMNQLRHNFKSLTSFSRWAHELLLSFREK
B2: SUCNR1/GPR91 (succinate receptor): N168A (protein)
parent chain: MLGIMAWNATCKNWLAAEAALEKYYLSIFYGIEFVVGVLGNTIVVYGYIFSLKNWNSSNIYLFNLSVSDLAFLCTLPMLIRSYANGNWIYGDVLCISNRYVLHANLYTSILFLTFISIDRYLIIKYPFREHLLQKKEFAILISLAIWVLVTLELLPILPLINPVITDNGTTCNDFASSGDPNYNLIYSMCLTLLGFLIPLFVMCFFYYKIALFLKQRNRQVATALPLEKPLNLVIMAVVIFSVLFTPYHVMRNVRIASRLGSWKQYQCTQVVINSFYIVTRPLAFLNSVINPVFYFLLGDHFRDMLMNQLRHNFKSLTSFSRWAHELLLSFREK

How the values were obtained:
[1] = confocal IF, colocalisation with calnexin, HEK 293T; settings: glycan lost; control: wild type
[2] = surface FLAG IF, nonpermeabilized HEK 293T, cadherin marker; settings: glycan lost; control: wild type

Row | Protein | localisation_or_trafficking [1] | localisation_or_trafficking [2]
1 | B1 | changes | increases
2 | B2 | no change | no change
